# Experimental data: patent publication US20120045438A1 (Janssen / Centocor, published 2012)
# Numbering of substitutions follows the chain as printed.
# B1: Fab clone 2C06 (IL-13-62 library) (Fab, V domains shown)
# VH: QVTLKESGPVLVKPTETLTLTCTVSGFSLSTYGMGVGWIRQPPGKALEWLAHIWWDDVKRYNPALKSRLTISKDTSKSQVVLTMTNMDPVDTATYYCARMGSDYDVWFDYWGQGTLVTVSS
# VL: EIVLTQSPATLSLSPGERATLSCRASKSISKYLAWYQQKPGQAPRLLIYSGSTQQSGIPARFSGSGSGTDFTLTISSLEPEDFAVYYCQQHDYPYTFGQGTKLEIK
# notes: Fab on phage pIX; del = residue deleted
# B2: Fab clone 2D04 (IL-13-62 library) (Fab, V domains shown)
# VH: B1 VH
# VL: B1 VL with Q54L, H91Q, Y93S
# notes: as for B1
# B3: Fab clone without printed name, L-CDR3 Q D G del (IL-13-62 library) (Fab, V domains shown)
# VH: B1 VH
# VL: B1 VL with Q54L, H91Q, Y93G
# notes: as for B1
# B4: Fab clone 2B07 (IL-13-62 library) (Fab, V domains shown)
# VH: B1 VH
# VL: EIVLTQSPATLSLSPGERATLSCRASKSISKYLAWYQQKPGQAPRLLIYSGSTLQSGIPARFSGSGSGTDFTLTISSLEPEDFAVYYCQQHDWGPYTFGQGTKLEIK
# notes: Fab on phage pIX
# B5: Fab clone 1A02 (IL-13-62 library) (Fab, V domains shown)
# VH: B1 VH
# VL: B4 VL with D92S, G94A
# notes: Fab on phage pIX
# B6: Fab clone 1A05 (IL-13-62 library) (Fab, V domains shown)
# VH: B1 VH
# VL: B4 VL with W93Y, G94A
# notes: Fab on phage pIX
# B7: Fab clone 1A06 (IL-13-62 library) (Fab, V domains shown)
# VH: B1 VH
# VL: B4 VL with D92E
# notes: Fab on phage pIX
# B8: Fab clone 1A07 (IL-13-62 library) (Fab, V domains shown)
# VH: B1 VH
# VL: B4 VL with W93N, G94S
# notes: Fab on phage pIX
# B9: Fab clone 1B05 (IL-13-62 library) (Fab, V domains shown)
# VH: B1 VH
# VL: B4 VL with W93R, G94D
# notes: Fab on phage pIX
# B10: Fab clone 1C06 (IL-13-62 library) (Fab, V domains shown)
# VH: B1 VH
# VL: B4 VL with D92S
# notes: Fab on phage pIX
# B11: Fab clone 1C07 (IL-13-62 library) (Fab, V domains shown)
# VH: B1 VH
# VL: B4 VL with D92E, W93S
# notes: Fab on phage pIX
# B12: Fab clone 1C09 (IL-13-62 library) (Fab, V domains shown)
# VH: B1 VH
# VL: B4 VL with Q38R, D92N, W93E, G94A
# notes: Fab on phage pIX
# B13: mAb with Lc 1H02 (Lc6 variant) and Hc2 (antibody, V domains shown)
# VH: B1 VH
# VL: B4 VL with H91Q, W93I
# notes: human IgG1
# B14: mAb with Lc 2A01 (Lc6 variant) and Hc2 (antibody, V domains shown)
# VH: B1 VH
# VL: B4 VL with D92S, W93H
# notes: human IgG1
# B15: mAb with Lc 2A03 (Lc6 variant) and Hc2 (antibody, V domains shown)
# VH: B1 VH
# VL: B4 VL with D92E, W93S
# notes: human IgG1
# B16: mAb with Lc 2A12 (Lc6 variant) and Hc2 (antibody, V domains shown)
# VH: B1 VH
# VL: B4 VL with W93P
# notes: human IgG1
# B17: mAb with Lc 2C01 (Lc6 variant) and Hc2 (antibody, V domains shown)
# VH: B1 VH
# VL: B4 VL with D92S, W93I
# notes: human IgG1
# B18: mAb with Lc 2C04 (Lc6 variant) and Hc2 (antibody, V domains shown)
# VH: B1 VH
# VL: B4 VL with D92N, W93F
# notes: human IgG1
# B19: mAb with Lc 2C05 (Lc6 variant) and Hc2 (antibody, V domains shown)
# VH: B1 VH
# VL: B4 VL with H91Q, W93L
# notes: human IgG1
# B20: mAb with Lc 2C09 (Lc6 variant) and Hc2 (antibody, V domains shown)
# VH: B1 VH
# VL: B4 VL with D92E
# notes: human IgG1
# B21: mAb with Lc 2E01 (Lc6 variant, Table 8) and Hc2 (antibody, V domains shown)
# VH: B1 VH
# VL: B4 VL with D92N, W93E, G94A
# notes: human IgG1
# B22: mAb with Lc 2E04 (Lc6 variant) and Hc2 (antibody, V domains shown)
# VH: B1 VH
# VL: B4 VL with H91P, D92L, W93E, G94A
# notes: human IgG1
# B23: mAb with Lc 2E06 (Lc6 variant) and Hc2 (antibody, V domains shown)
# VH: B1 VH
# VL: B4 VL with D92S, W93S
# notes: human IgG1
# B24: mAb with Lc 2E12 (Lc6 variant) and Hc2 (antibody, V domains shown)
# VH: B1 VH
# VL: B4 VL with G94S
# notes: human IgG1
# B25: mAb with Lc 2G01 (Lc6 variant) and Hc2 (antibody, V domains shown)
# VH: B1 VH
# VL: B4 VL with D92F
# notes: human IgG1
# B26: mAb with Lc 2H01 (Lc6 variant) and Hc2 (antibody, V domains shown)
# VH: B1 VH
# VL: B4 VL with G94E
# notes: human IgG1
# B27: mAb with Lc 2H08 (Lc6 variant) and Hc2 (antibody, V domains shown)
# VH: B1 VH
# VL: B4 VL with D92L, W93D, G94S
# notes: human IgG1
# B28: mAb with Lc 2H09 (Lc6 variant) and Hc2 (antibody, V domains shown)
# VH: B1 VH
# VL: B4 VL with H91P, D92I, W93D, G94A
# notes: human IgG1
# B29: mAb with Lc 3A04 (Lc6 variant) and Hc2 (antibody, V domains shown)
# VH: B1 VH
# VL: B4 VL with H91P, D92L, W93D, G94S
# notes: human IgG1
# B30: mAb with Lc 3A05 (Lc6 variant) and Hc2 (antibody, V domains shown)
# VH: B1 VH
# VL: B4 VL with W93N, G94S
# notes: human IgG1
# B31: mAb with Lc 3A09 (Lc6 variant) and Hc2 (antibody, V domains shown)
# VH: B1 VH
# VL: B4 VL with W93L
# notes: human IgG1
# B32: mAb with Lc 3B06 (Lc6 variant) and Hc2 (antibody, V domains shown)
# VH: B1 VH
# VL: B4 VL with D92L, W93M
# notes: human IgG1
# B33: mAb with Lc 3C06 (Lc6 variant) and Hc2 (antibody, V domains shown)
# VH: B1 VH
# VL: B4 VL with D92S, W93V
# notes: human IgG1
# B34: mAb with Lc 3D01 (Lc6 variant) and Hc2 (antibody, V domains shown)
# VH: B1 VH
# VL: B4 VL with D92V, W93G
# notes: human IgG1
# B35: mAb with Lc 3E03 (Lc6 variant) and Hc2 (antibody, V domains shown)
# VH: B1 VH
# VL: B4 VL with D92N, W93H
# notes: human IgG1
# B36: mAb with Lc 3E05 (Lc6 variant) and Hc2 (antibody, V domains shown)
# VH: B1 VH
# VL: B4 VL with H91P, D92L, W93D, G94T
# notes: human IgG1
# B37: mAb with Lc 3G01 (Lc6 variant) and Hc2 (antibody, V domains shown)
# VH: B1 VH
# VL: B4 VL with H91P, D92L, W93D, G94V
# notes: human IgG1
# B38: mAb with Lc 3G02 (Lc6 variant) and Hc2 (antibody, V domains shown)
# VH: B1 VH
# VL: B4 VL with D92L, W93N
# notes: human IgG1
# B39: mAb with Lc 5A02 (Lc6 variant) and Hc2 (antibody, V domains shown)
# VH: B1 VH
# VL: B4 VL with H91Q, W93Y
# notes: human IgG1
# B40: mAb with Lc 5B03 (Lc6 variant) and Hc2 (antibody, V domains shown)
# VH: B1 VH
# VL: B4 VL with Q38R, D92N, W93E, G94A
# notes: human IgG1
# B41: mAb with Lc 5D03 (Lc6 variant) and Hc2 (antibody, V domains shown)
# VH: B1 VH
# VL: B4 VL with D92S, W93Y
# notes: human IgG1
# B42: mAb with Lc 5G02 (Lc6 variant) and Hc2 (antibody, V domains shown)
# VH: B1 VH
# VL: B4 VL with S56G, D92L, W93D, G94S
# notes: human IgG1
# B43: mAb with Lc 5H04 (Lc6 variant) and Hc2 (antibody, V domains shown)
# VH: B1 VH
# VL: B4 VL with W93Y, G94A
# notes: human IgG1
# Biological target: T1, human IL-13 R130Q variant (R110Q of the mature chain) (human, UniProt P35225 35-146, Biotinylated on amines (NHS-LC-biotin, 4:1) in ELISA, panning and competition assays. The letters are unchanged.)
# T1 construct: R130Q counts from Met 1 of the signal peptide, R110Q on the mature chain; Bought from Peprotech; also called IL-13 R110Q; b-R130Q
# Test: single-point (10 nM) phage Fab ELISA on biotinylated IL-13 R130Q
row,Binder,Signal (% of Lc16Hc7)
1,B1,128%
2,B2,100%
3,B3,184%
4,B4,144%
5,B5,120%
6,B6,136%
7,B7,122%
8,B8,120%
9,B9,108%
10,B10,172%
11,B11,136%
12,B12,152%

# Biological target: T1, human IL-13 R130Q variant (R110Q of the …)
# Test: Ra2 binding inhibition ELISA, mAb in crude HEK293 supernatant, IL-13 binding to IL-13Ra2
row,Binder,% Ra2 Binding Inhibition
1,B13,81.7%
2,B14,72.1%
3,B15,75.8%
4,B16,78.5%
5,B17,67.7%
6,B18,61.9%
7,B19,83.8%
8,B20,87.6%
9,B21,53.9%
10,B22,56.6%
11,B23,50.2%
12,B24,83%
13,B25,81.2%
14,B26,80%
15,B27,62.3%
16,B28,62.5%

row,Binder,% Ra2 Binding Inhibition
1,B29,67%
2,B30,55.5%
3,B31,76.5%
4,B32,74.3%
5,B33,62.1%
6,B34,58.5%
7,B35,70.9%
8,B36,70.8%
9,B37,68.4%
10,B38,66.9%
11,B39,78.4%
12,B40,63%
13,B41,72.8%
14,B42,66.2%
15,B43,66.1%
